Values of other authors as cited in paper PMC3910004.

Target: T1, human interleukin-6 receptor (hIL-6R) (Homo sapiens) (UniProt P08887)
T1 sequence: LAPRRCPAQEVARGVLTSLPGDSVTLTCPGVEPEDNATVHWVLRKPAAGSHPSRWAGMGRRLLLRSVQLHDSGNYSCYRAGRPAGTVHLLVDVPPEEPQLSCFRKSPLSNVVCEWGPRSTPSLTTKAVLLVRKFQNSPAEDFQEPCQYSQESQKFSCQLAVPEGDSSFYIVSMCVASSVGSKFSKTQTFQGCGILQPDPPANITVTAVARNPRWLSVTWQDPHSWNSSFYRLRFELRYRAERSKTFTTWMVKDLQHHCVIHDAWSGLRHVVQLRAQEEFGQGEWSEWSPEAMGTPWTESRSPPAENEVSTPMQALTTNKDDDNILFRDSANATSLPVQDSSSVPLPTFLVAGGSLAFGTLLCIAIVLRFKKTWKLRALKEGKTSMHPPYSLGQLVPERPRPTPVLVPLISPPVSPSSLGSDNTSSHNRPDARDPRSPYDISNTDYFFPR
Conditions: Cell binding by flow cytometry, 50 nM conjugate, 45 min, serum-free medium, 37 °C (stated for the uptake in cytotoxicity assays); binding buffer details not in …

GGGGAGGCUGUGGUGAGGG [AIR-3A]
Kd: 8.5 nM
